Earlier results on one molecule are cited in patent US20030175848A1, “Substituted dithiobisnitrobenzenes and their applications” (Institut Pasteur De Lille, priority 1998, published 2003).

For the data set, the target named is T1, human thioredoxin reductase (hTrxR) (Homo sapiens, UniProt Q16881).
T1 construct: U of native hTrxR; from tissue; host or cells: human placenta
T1 sequence (Q16881 151-649 limits assumed): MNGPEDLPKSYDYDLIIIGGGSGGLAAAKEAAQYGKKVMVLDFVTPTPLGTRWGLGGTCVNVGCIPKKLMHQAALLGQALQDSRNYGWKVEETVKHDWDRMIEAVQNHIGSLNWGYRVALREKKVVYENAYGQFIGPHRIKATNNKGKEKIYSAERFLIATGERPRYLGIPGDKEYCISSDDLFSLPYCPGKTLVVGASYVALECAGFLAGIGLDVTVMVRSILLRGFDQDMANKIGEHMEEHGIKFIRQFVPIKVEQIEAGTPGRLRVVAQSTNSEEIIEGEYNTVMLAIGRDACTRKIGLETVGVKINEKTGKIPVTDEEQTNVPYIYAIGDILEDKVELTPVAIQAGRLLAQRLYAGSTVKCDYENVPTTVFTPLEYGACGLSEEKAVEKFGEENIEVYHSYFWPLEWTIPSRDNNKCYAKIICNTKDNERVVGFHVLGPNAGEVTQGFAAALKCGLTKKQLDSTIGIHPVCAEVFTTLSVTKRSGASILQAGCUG
The settings on record: substrate of native hTrxR (placenta); references [29], [38].

B1: HTrx: human thioredoxin, physiological substrate of hTrxR (protein, UniProt P10599 2-105, looked up)
Thioredoxin: VKQIESKTAFQEALDAAGDKLVVVDFSATWCGPCKMIKPFFHSLSEKYSNVIFLEVDVDDCQDVASECEVKCMPTFQFFKKGQKVGEFSGANKEKLEATINELV
For orientation: Km means the substrate concentration at which the rate is half of its maximum. B1: the Km is 4.3 µM.
